{
  "source": "patent US10238736B2",
  "about": "“Adjuvant compositions” (priority 2008, dated 2019)",
  "test_system": "OVA-specific CTL responses",
  "assay": "Relative CTL/cytokine/tetramer responses of mice immunized with OVA",
  "format": "in vivo, C57131/6 mice",
  "experimental": "Female C57131/6 mice (n=10 per group) with a body weight of about 18-20 g were used in the study. They were immunized via intramuscular (IM) injection into the left tibialis anterior muscle with a total volume of 50 μl on study days 0, 14 and 21.\nA dose of the composition comprised, in various combinations, one or more of the following components: • Buffer: NaH2PO4.2H20 (229.32 mg/L), NaCl (1168.00 mg/L) and Na2HPO4 (1144.00 mg/L), dissolved in WFI and sterile filtered with a 0.1 μm filter. • Ovalbumin (OVA—Antigen): 10 μg • CpG ODN: 10 μg • Cholesterol: 1 μg • Quil A: 1 μg • DDA: 0.5 μg • Carbopol: 0.0375% • R1005: 50 μg Vaccine Preparation\nBuffer was placed in a 50 ml flask with stir bar and stirred at a constant speed throughout all following steps. The components were added in the following order: Antigen (OVA); CPG ODN; Quil A; cholesterol (drop wise); DDA (drop wise); Carbopol®; and Bay R1005®. The composition was stirred at room temperature (approximately 25° C.) for a minimum of 30 minutes while protected from light by covering with foil. The solution was forced through a 25G needle into a syringe to break any large floating particles to obtain a uniform (cloudy) suspension and transferred to sterile glass vials for storage.\nThe following samples were collected: • Plasma: 4 weeks after the prime vaccination (1 week after second booster vaccination) • Cytotoxic T lymphocyte (CTL) (6 weeks after the prime vaccination (3 weeks after second booster vaccination) • Cytokine secretion in supernatant (4 weeks after the prime vaccination • 24-hour supernatant (IL-2, IL-4, IL-10, TNF • 72-hour supernatant (IFN-g • Tetramer (4 weeks after the prime vaccination • Cytokine producing T cells (6 weeks after the prime vaccination\nThe results are provided as a relative score that for each adjuvant showing the effect of the adjuvant. The endpoints are a relative scale based on the sum of the individual Cytotoxic T—Lymphocyte responses.",
  "data": [
    {"molecule": "OVA: Ovalbumin antigen, 10 μg, without adjuvant (protein, UniProt P01012 2-386, looked up) Ovalbumin: GSIGAASMEFCFDVFKELKVHHANENIFYCPIAIMSALAMVYLGAKDSTRTQINKVVRFDKLPGFGDSIEAQCGTSVNVHSSLRDILNQITKPNDVYSFSLASRLYAEERYPILPEYLQCVKELYRGGLEPINFQTAADQARELINSWVESQTNGIIRNVLQPSSVDSQTAMVLVNAIVFKGLWEKAFKDEDTQAMPFRVTEQESKPVQMMYQIGLFRVASMASEKMKILELPFASGTMSMLVLLPDEVSGLEQLESIINFEKLTEWTSSNVMEERKIKVYLPRMKMEEKYNLTSVLMAMGITDVFSSSANLSGISSAESLKISQAVHAAHAEINEAGREVVGSAEAGVDAASVSEEFRADHPFLFCIKHIATNAVLFFGRCVSP", "values": [
      {"measurement": "Relative CTL Responses: Tetramer", "setting": "relative score, 4 weeks after the prime vaccination", "result": 1},
      {"measurement": "Relative CTL Responses: CTL", "setting": "relative score, 6 weeks after the prime vaccination", "result": 1},
      {"measurement": "Relative CTL Responses: IL-2", "setting": "relative score, 24-hour supernatant", "result": 1},
      {"measurement": "Relative CTL Responses: IFN-g", "setting": "relative score, 72-hour supernatant", "result": 1},
      {"measurement": "Relative CTL Responses: Total", "setting": "sum of the individual relative scores", "result": 4}
    ]}
  ]
}
